# Measurements published in patent US20160145334A1 (AbbVie / Abbott, published 2016).
# T1: soluble recombinant rat NgR, amino acids 27 through 450, with 6xHis tag (rat)
# T1 construct: 2a; made in HEK293F cells; also called Rat NgR 6x His; rNgR
# T1 chain: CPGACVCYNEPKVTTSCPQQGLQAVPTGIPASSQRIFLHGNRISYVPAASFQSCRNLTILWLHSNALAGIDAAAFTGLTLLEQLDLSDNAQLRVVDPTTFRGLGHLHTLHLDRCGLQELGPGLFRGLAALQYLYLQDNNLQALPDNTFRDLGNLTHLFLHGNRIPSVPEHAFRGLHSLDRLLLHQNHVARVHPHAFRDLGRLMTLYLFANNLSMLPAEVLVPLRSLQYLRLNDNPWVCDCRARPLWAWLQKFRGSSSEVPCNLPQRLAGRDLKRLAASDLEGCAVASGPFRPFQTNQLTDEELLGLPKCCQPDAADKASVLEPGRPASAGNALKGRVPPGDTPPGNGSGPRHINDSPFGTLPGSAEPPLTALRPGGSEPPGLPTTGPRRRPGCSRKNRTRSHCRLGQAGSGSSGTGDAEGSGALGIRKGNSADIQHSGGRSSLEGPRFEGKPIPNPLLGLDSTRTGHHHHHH
# T2: human recombinant NgR/Fc chimera (R&D Systems, Cat. Number 1208-NG) (human, UniProt Q9BZR6 27-447)
# T2 construct: range 1-447; Bought from R&D Systems; also called hNgR-Fc; human NgR-Fc; not shown: human Fc fragment
# T2 sequence (looked up): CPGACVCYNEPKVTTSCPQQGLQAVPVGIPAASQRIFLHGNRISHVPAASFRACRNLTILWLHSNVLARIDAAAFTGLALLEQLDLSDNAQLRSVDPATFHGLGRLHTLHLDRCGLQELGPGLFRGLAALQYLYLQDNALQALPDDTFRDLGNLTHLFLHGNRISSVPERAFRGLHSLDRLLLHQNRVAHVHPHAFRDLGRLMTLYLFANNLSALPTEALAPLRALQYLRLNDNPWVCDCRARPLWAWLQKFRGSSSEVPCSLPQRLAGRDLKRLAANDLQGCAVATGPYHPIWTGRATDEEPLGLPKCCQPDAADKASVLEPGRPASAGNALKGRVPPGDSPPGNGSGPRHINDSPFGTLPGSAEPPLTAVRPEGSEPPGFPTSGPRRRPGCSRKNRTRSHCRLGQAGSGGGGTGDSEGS
# B1: mAb51 (antibody, IgG2a, V domains shown)
# VH: QVQLQQPGAELVKPGASVKLSCKASGYTFITYWMHWMKQRPGQGLEWIGEIDPSDSYTDYNQKFKGKATLTVDKSSSTAYMQLSSLTSEDSAVYYCARGSNVLYVLDYWGQGTSVTVSS
# VL: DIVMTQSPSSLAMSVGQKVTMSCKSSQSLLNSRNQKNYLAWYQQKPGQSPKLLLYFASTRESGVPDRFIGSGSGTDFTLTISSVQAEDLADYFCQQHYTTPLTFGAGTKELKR
# notes: also called Antibody Clone 51; ATCC No. PTA-8384
# Assays:
# [1] = target: T1, soluble recombinant rat NgR, amino …; experiment: not stated
# [2] = target: T1, soluble recombinant rat NgR, amino …; experiment: ELISA, rat NgR coated 0.2 µg/well
# Experimental: (§1) To determine the specificity of the monoclonal antibodies produced in Example 1, an ELISA using NgR-Fc (a fusion protein comprising amino acids Met 1 to Ser 447 of the human NgR and a human Fc fragment (R&D Systems)) and rat NgR (SEQ ID NO. 2a), was performed. Both ligands were immobilized on 96-well microtiter plates (Nunc Maxisorb; 0.2 μg/well). As a blocking reagent 2% bovine serum albumin (BSA) in Tris-HCL, pH 7.2 was used for 2 h at room temperature. The monoclonal antibodies were used in concentrations starting at 10,000 ng/ml. Bound antibodies were detected with a secondary anti-mouse antibody labeled with horseradish peroxidase (Sigma) and developed using 3,3′,5,5′-tetramethylbenzidine substrate (TMB, Pierce) under standard conditions. mAb50 and mAb51 specifically bound to human NgR. […] In similar experiments, mAb50 and mAb51 also specifically bound to a polypeptide consisting of amino acids of the rat NgR.
# [3] = target: T2, human recombinant NgR/Fc chimera (R&D …); experiment: ELISA, human NgR-Fc coated 0.2 µg/well
# [4] = target: T2, human recombinant NgR/Fc chimera (R&D …); experiment: Biacore, antibody captured, hNgR-Fc chimera as antigen
# [5] = target: T1, soluble recombinant rat NgR, amino …; experiment: ELISA, rat NgR coated 0.2 µg/well, anti-mouse-HRP, TMB
# Experimental: as §1
# [6] = target: T2, human recombinant NgR/Fc chimera (R&D …); experiment: ELISA, human NgR-Fc coated 0.2 µg/well, anti-mouse-HRP, TMB
# Experimental: as §1
# [7] = target: T2, human recombinant NgR/Fc chimera (R&D …); experiment: competition ELISA, human NgR-Fc coated 0.2 µg/well, blocked ligand AP-Nogo66 at 0.15 nM, AttoPhos, RFU (30min-0min)
# Experimental: To further characterize the monoclonal antibodies a competition assay similar to the binding assay of Example 2 was used to test the ability of the mAbs produced in Example 1 to inhibit AP-Nogo66 binding to human NgR-Fc. Human NgR-Fc (0.2 μg/well) was immobilized on 96-well microtiter plates (Nunc Maxisorb) in 50 mM Na-carbonate buffer pH 9 over night at 4° C. followed by a 2 h blocking step with 2% BSA in Tris-HCL, pH 7.2 at room temperature. The wells received a constant concentration of AP-Nogo66 (final concentration 0.15 nM in Tris-HCL, pH 7.2 with 0.1% BSA) and increasing concentrations of the mAbs. Plates were incubated for 90 min at room temperature. During each incubation step plates were washed with washing buffer (10 mM Tris-HCl, pH7.2 and 0.05% Tween20). Binding of AP-Nogo66 was detected with the AttoPhos substrate (Roche) and the fluorescence units were measured in the Polarstar (BMG) instrument.
binder,measurement,setting,value
B1,IC50,[1],~0.03 nM
same,EC50,[2],< 0.02 µg/mL
same,EC50,[3],< 0.02 µg/mL
same,Kd,[4],0.108 nM
same,koff,[4],5.88e-05 s⁻¹
same,kon,[4],544000 M⁻¹ s⁻¹
same,EC50 (read off the curve),[5],~0.03 µg/mL
same,EC50 (read off the curve),[6],~0.006 µg/mL
same,IC50 (read off the curve),[7],~2 nM
